# Reference: patent publication US20220177587A1, “METHODS AND USES OF VARIANT CD80 FUSION PROTEINS AND RELATED CONSTRUCTS” (Alpine Immune Sciences, Inc., priority 2018, published 2022)
# Changes are numbered by the printed parent chain. Names and notes keep the numbering of the source.
# B1: R29D, Y31L, Q33H, K36G, M38I, T41A, M43R, M47T, E81V, L85R, K89N, A91T, F92P, K93V, R94L, S129L, H188D (protein)
# chain: VIHVTKEVKEVATLSCGHNVSVEELAQTDILWHKEGKIVLAMRSGDTNIWPEYKNRTIFDITNNLSIVILALRPSDEGTYVCVVRKYENDTPVLEHLAEVTLSVKADFPTPSISDFEIPTSNIRRIICLTSGGFPEPHLSWLENGEELNAINTTVSQDPETELYAVSSKLDFNMTTNHSFMCLIKYGDLRVNQTFNWNTTKQEHFPDN
# B2: H18L, R29D, Y31L, Q33H, K36G, M38I, T41A, M43R, M47T, E81V, L85R, K89N, A91T, F92P, K93V, R94L, I118V, T120S, I127T, T130A, H188D (protein)
# chain: B1 chain with H18L, I118V, T120S, I127T, L129S, T130A
# B3: R29D, Y31L, Q33H, K36G, M38I, T41A, M43R, M47T, E81V, L85R, K89N, A91T, F92P, K93V, R94L, H18L, V68M, T130A (protein)
# chain: B1 chain with H18L, V68M, L129S, T130A, D188H
# B4: H18L, R29D, Y31L, Q33H, K36G, M38I, T41A, M43R, M47T, P74L, Y80N, E81V, L85R, K89N, A91T, F92P, K93V, R94L, L97R (protein)
# chain: B1 chain with H18L, P74L, Y80N, L97R, L129S, D188H
# B5: R29D, Y31L, Q33H, K36G, M38I, T41A, M43R, M47T, E81V, L85R, K89N, A91T, F92P, K93V, R94L, I118T, T130A, N149S, K169I, Q193L (protein)
# chain: B1 chain with I118T, L129S, T130A, N149S, K169I, D188H, Q193L
# B6: R29D, Y31L, Q33H, K36G, M38I, T41A, M43R, M47T, E81V, L85R, K89N, A91T, F92P, K93V, R94L, S21P, P74L, Y80N, D90N, T130A, N149S, E162G (protein)
# chain: B1 chain with S21P, P74L, Y80N, D90N, L129S, T130A, N149S, E162G, D188H
# B7: H18L, R29D, Y31L, Q33H, K36G, M38I, T41A, M43R, M47T, E81V, L85R, K89N, A91T, F92P, K93V, R94L, L97R, N149S, H188Q (protein)
# chain: B1 chain with H18L, L97R, L129S, N149S, D188Q
# B8: V22A, R29D, Y31L, Q33H, K36G, M38I, T41A, M43R, M47T, E81V, L85R, K89N, A91T, F92P, K93V, R94L, V68M, T130A (protein)
# chain: B1 chain with V22A, V68M, L129S, T130A, D188H
# B9: R29D, Y31L, Q33H, K36G, M38I, T41A, M43R, M47T, E81V, L85R, K89N, A91T, F92P, K93V, R94L, H18L, P74L, Y80N, T130A, R190S (protein)
# chain: B1 chain with H18L, P74L, Y80N, L129S, T130A, D188H, R190S
# B10: R29D, Y31L, Q33H, K36G, M38I, T41A, M43R, M47T, E81V, L85R, K89N, A91T, F92P, K93V, R94L, H18L, V68A, T130A, N149S, T154I (protein)
# chain: B1 chain with H18L, V68A, L129S, T130A, N149S, T154I, D188H
# B11: R29D, Y31L, Q33H, K36G, M38I, T41A, M43R, M47T, E81V, L85R, K89N, A91T, F92P, K93V, R94F, N64S, I118T, T130A, N149S, K169I (protein)
# chain: B1 chain with N64S, L94F, I118T, L129S, T130A, N149S, K169I, D188H
# B12: T28A, R29D, Y31L, Q33H, K36G, M38I, T41A, M43R, M47T, E81V, L85R, K89N, A91T, F92P, K93V, R94L, V104L, T130A, N149S (protein)
# chain: B1 chain with T28A, V104L, L129S, T130A, N149S, D188H
# B13: R29D, Y31L, Q33H, K36G, M38I, T41A, M43R, M47T, E81V, L85R, K89N, A91T, F92P, K93V, R94L, I118V, T120S, T130A, K169E, M174T (protein)
# chain: B1 chain with I118V, T120S, L129S, T130A, K169E, M174T, D188H
# B14: S21P, R29D, Y31L, Q33H, K36G, M38I, T41A, M43R, M47T, N48I, V68A, E81V, L85R, K89N, A91T, F92P, K93V, R94L,P109H, I126L, K169I (protein)
# chain: B1 chain with S21P, N48I, V68A, P109H, I126L, L129S, K169I, D188H
# B15: L70Q, A91G, I118V, T120S, T130A, K169E (protein)
# chain: VIHVTKEVKEVATLSCGHNVSVEELAQTRIYWQKEKKMVLTMMSGDMNIWPEYKNRTIFDITNNLSIVIQALRPSDEGTYECVVLKYEKDGFKREHLAEVTLSVKADFPTPSISDFEVPSSNIRRIICSASGGFPEPHLSWLENGEELNAINTTVSQDPETELYAVSSELDFNMTTNHSFMCLIKYGHLRVNQTFNWNTTKQEHFPDN
# modifications: CD80 v125 ECD
# B16: Y53C/L70Q/D90G/T130A/N149D/N152T/H188D (protein)
# chain: B15 chain with Y53C, D90G, G91A, V118I, S120T, N149D, N152T, E169K, H188D
# B17: I69T, L70Q, A91G, T120S (protein)
# chain: B15 chain with I69T, V118I, A130T, E169K
# modifications: CD80 v105 ECD
# B18: A91G, S129P (protein)
# chain: B15 chain with Q70L, V118I, S120T, S129P, A130T, E169K
# B19: Y31H, S129P (protein)
# chain: B15 chain with Y31H, Q70L, G91A, V118I, S120T, S129P, A130T, E169K
# modifications: CD80 v106 ECD
# B20: K89E, K93E, T130A (protein)
# chain: B15 chain with Q70L, K89E, G91A, K93E, V118I, S120T, E169K
# modifications: CD80 v91 ECD
# B21: H18L, R29D, Y31L, Q33H, K36G, M38I, T41A, M43R, M47T, E81V, L85R, K89N, A91T, F92P, K93V, R94L, L97R, T130A, N149S (protein, UniProt P33681 35-288, looked up, variant H18L R29D Y31L Q33H K36G M38I T41A M43R M47T E81V L85R K89N A91T F92P K93V R94L L97R T130A N149S)
# T-lymphocyte activation …: VIHVTKEVKEVATLSCGLNVSVEELAQTDILWHKEGKIVLAMRSGDTNIWPEYKNRTIFDITNNLSIVILALRPSDEGTYVCVVRKYENDTPVLEHRAEVTLSVKADFPTPSISDFEIPTSNIRRIICSASGGFPEPHLSWLENGEELSAINTTVSQDPETELYAVSSKLDFNMTTNHSFMCLIKYGHLRVNQTFNWNTTKQEHFPDNLLPSWAITLISVNGIFVICCLTYCFAPRCRERRRNERLRRESVRPV
# Tested on: human pan T cells
# Experiment: Anti-CD3 coimmobilization assay, IFN-gamma
# Format: cell-based
# Conditions: Table E34; culture supernatant, 3 days
# Experimental: Costimulatory bioactivity of CD80 fusion variants was determined in anti-CD3 coimmobilization assays. 1 nM or 4 nM mouse anti-human CD3 (OKT3, Biolegends, USA) was diluted in PBS with 1 nM to 80 nM rCD80.Fc variant proteins. This mixture was added to tissue culture treated flat bottom 96-well plates (Corning, USA) overnight to facilitate adherence of the stimulatory proteins to the wells of the plate. The next day, unbound protein was washed off the plates and 100,000 purified human pan T cells (BenTech Bio, US) or human T cell clone BC3 (Astarte Biologics, USA) were added to each well in a final volume of 200 μl of Ex-Vivo 15 media (Lonza, Switzerland). Cells were cultured 3 days before harvesting culture supernatants and measuring human IFN-gamma levels with Duoset ELISA kit (R&D Systems, USA) as described above.
row,Molecule,Anti-CD3 IFN-gamma Coimmobilization Assay
1,B1,87 pg/mL
2,B2,108 pg/mL
3,B3,51 pg/mL
4,B4,18 pg/mL
5,B5,130 pg/mL
6,B6,54 pg/mL
7,B7,125 pg/mL
8,B8,96 pg/mL
9,B9,8 pg/mL
10,B10,132 pg/mL
11,B11,30 pg/mL
12,B12,116 pg/mL
13,B13,141 pg/mL
14,B14,137 pg/mL
15,B15,115 pg/mL
16,B16,122 pg/mL
17,B17,509 pg/mL
18,B18,0 pg/mL
19,B19,76 pg/mL
20,B20,571 pg/mL
21,B21,96 pg/mL
